What is called Kd is the free concentration of one partner at which half of the binding sites on the other are occupied at equilibrium, for simple one-to-one binding. As a reminder, the stoichiometry N is the number of molecules, sites or subunits per partner or assembly.

The record followed here is article PMC6001692, “Chlamydial virulence factor TarP mimics talin to disrupt the talin‐vinculin complex” (Febs Letters, 2018).

Test [1] has as its target T1, FAK‐FAT domain (residues 941–1090) (Mus musculus, UniProt P34152).
T1 construct: the FAK‐FAT domain (residues 941–1090); 6xHis (cleaved yes); made in house; host or cells: E. coli BL21 (DE3)
T1 sequence (P34152 904-1052 limits assumed): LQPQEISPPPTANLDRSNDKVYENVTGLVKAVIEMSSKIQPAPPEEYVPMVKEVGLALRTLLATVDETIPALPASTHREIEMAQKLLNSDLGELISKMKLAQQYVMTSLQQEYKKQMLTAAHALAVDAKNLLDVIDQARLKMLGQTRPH
As to the kind of experiment: Fluorescence polarisation assay, fluorescein-labelled LD-motif peptides titrated with FAK-FAT domain. It is filed as binding. From the text: Chicken vinculin Vd1 (residues 1–259), murine talin R10 (residues 1815–1973), and the FAK‐FAT domain (residues 941–1090) were cloned into a pET151 vector (Invitrogen) and expressed in E .coli BL21 (DE3) cells cultured in LB. Standard nickel‐affinity chromatography was used to purify the His‐tagged recombinant proteins as described previously 15. The proteins were further purified using anion‐exchange chromatography following cleavage of the 6xHis‐tag with TEV protease. Protein concentrations were determined using the respective extinction coefficients at 280 nm.
Peptides with either a C‐ or N‐terminal cysteine were synthesised by GLBiochem (China).
Peptides were coupled to a thiol‐reactive fluorescein dye via the terminal cysteine. Stock solutions were made in phosphate‐buffered saline (PBS; 137 mM NaCl, […], […], […], pH 7.4), 1 mM TCEP and 0.05% Triton X‐100. Excess dye was removed using a PD‐10 desalting column (GE Healthcare, Chicago, IL, USA). […] Fluorescent polarisation (FP) measurements were recorded on a BMGLabTech CLARIOstar plate reader at room temperature and analysed using GraphPad Prism. K d values were calculated with nonlinear curve fitting using a one‐site total binding model. […]
(In general: In fluorescence polarisation assays a small probe gives low polarisation when free and higher when bound to something large.)

In test [2] the target is T2, vinculin Vd1 (residues 1–259) (Gallus gallus, UniProt P12003).
T2 construct: Chicken vinculin Vd1 (residues 1–259); 6xHis (cleaved yes); made in house; host or cells: E. coli BL21 (DE3)
Kind of test: Fluorescence polarisation assay, fluorescein-labelled peptides titrated with vinculin head Vd1. It is filed as binding, Chicken. The conditions noted are these: FP; negative control; Kd ND in Fig. 1D.
Method: Peptides were coupled to a thiol‐reactive fluorescein dye via the terminal cysteine. Stock solutions were made in phosphate‐buffered saline (PBS; 137 mM NaCl, 27 mM KCl, 100 mM Na2HPO4, 18 mM KH2PO4, pH 7.4), 1 mM TCEP and 0.05% Triton X‐100. Excess dye was removed using a PD‐10 desalting column (GE Healthcare, Chicago, IL, USA). Titrations were performed in PBS using a constant 1 μM concentration of fluorescein‐coupled peptide with increasing concentration of protein; final volume 100 μL in a black 96‐well plate. Fluorescent polarisation (FP) measurements were recorded on a BMGLabTech CLARIOstar plate reader at room temperature and analysed using GraphPad Prism. K d values were calculated with nonlinear curve fitting using a one‐site total binding model.
In this assay, synthetic VBS peptides (Materials and methods) were fluorescently labelled with fluorescein and titrated against an increasing concentration of Vd1.

The target in test [3] is T3, Chicken vinculin Vd1 (residues 1–259) (chicken, UniProt P12003 1-259).
T3 construct: also called vinculin head; vinculin head domain
T3 sequence (looked up): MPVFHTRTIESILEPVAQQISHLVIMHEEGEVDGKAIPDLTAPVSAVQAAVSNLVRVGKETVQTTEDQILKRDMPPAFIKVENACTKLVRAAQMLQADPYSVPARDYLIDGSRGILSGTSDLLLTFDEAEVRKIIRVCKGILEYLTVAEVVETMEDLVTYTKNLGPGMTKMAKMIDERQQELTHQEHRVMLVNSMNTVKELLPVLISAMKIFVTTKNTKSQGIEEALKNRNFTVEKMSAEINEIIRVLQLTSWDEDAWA
Kind of test: fluorescence polarisation; 1 μM fluorescein-coupled peptide constant, increasing concentration of protein; PBS, room temperature, 96-well plate; one-site total binding fit; triplicate. The conditions noted are these: both partners purified.

The target of test [4] is FAK‐FAT domain (residues 941–1090). The description is as above.
Test [5] has as its target T3, Chicken vinculin Vd1 (residues 1–259). As to the kind of experiment: SEC-MALS; analytical gel filtration, Superdex-75, 4 °C, 50 mM Tris pH 7.5, 150 mM NaCl, 2 mM DTT; 100 μM of each protein at 1:1 (talin:Vd1), incubated at 37 °C for 30 min. The note with it: both partners purified.

Where no end group is shown, it is not given here.

On to `CC(C)C[C@H](NC(=O)[C@H](CCC(=O)O)NC(=O)[C@H](CC(C)C)NC(=O)[C@H](CC(C)C)NC(=O)[C@H](CC(C)C)NC(=O)[C@H](CCCNC(=N)N)NC(=O)[C@H](CC(=O)O)NC(=O)[C@H](CC(C)C)NC(=O)[C@H](CCC(=O)O)NC(=O)[C@H](CO)NC(=O)[C@H](CC(C)C)NC(=O)[C@H](CC(N)=O)NC(=O)[C@@H](N)CS)C(=O)N[C@@H](CC(N)=O)C(=O)O` [Paxillin LD2, reference compound], for which the Kd in test [1] (FP, 1 μM fluorescein-coupled peptide, increasing FAK-FAT, PBS, room temperature, ± SE, read-out: Dissociation constant Kd for binding to FAK-FAT) is 9.01 µM.
Consider “EGAEGLEHLLPQLRSHLDDAFDQQGN‐C [TarP LD, synthetic LD-motif peptide of C. caviae TarP, residues 655–680, with C-terminal cysteine]”, for which the “Interaction with Vd1 (in words)” value in test [2] is recorded as “does not interact with Vd1”. In addition, the “Binding to FAK-FAT by FP (in words)” value in test [1] (fluorescein-labelled peptide, Kd ND in Fig. 4B) is on record as “no increase in polarisation”.
The molecule LLEAARNTTTMLSKTLSKVC(fluorescein) (source: synthetic peptide (GLBiochem)) [TarP_VBS1 peptide (C. caviae residues 850–868) with C-terminal cysteine, fluorescein-coupled] registered a Kd in test [3] of 1.29 µM.
As to CNLSELDRLLLELN (fluorescein (thiol-reactive dye) coupled via the N-terminal cysteine) [Pax_LD2 peptide (paxillin residues 141–153) with N-terminal cysteine, fluorescein-coupled], the Kd in test [4] amounted to 9 µM.

B1: mTal1_VBS36 peptide (talin residues 1622–1656) with N-terminal cysteine, fluorescein-coupled (peptide)
peptide: C(fluorescein)VNPRDPPRWSVLAGHSRTVSDSIKKLITSMRDKAP
notes: also called talin VBS36; source: synthetic peptide (GLBiochem)
As for B1, in test [3], binding was characterised by a dissociation constant (Kd) of 1.03 µM.

B2: murine talin R10 (residues 1815–1973) (domain or fragment, UniProt P26039 1815-1973, looked up)
chain: NEAASAAGVVGGMVDSITQAINQLDEGPMGDPEGSFVDYQTTMVRTAKAIAVTVQEMVTKSNTSPEELGPLANQLTSDYGRLASQAKPAAVAAENEEIGAHIKHRVQELGHGCSALVTKAGALQCSPSDVYTKKELIECARRVSEKVSHVLAALQAGNR
notes: also called talin rod domain R10
B2: in test [5], the “stoichiometry N” value was 1.
